Reference: IntAct's records for PubMed 19822759

Target: sc23a_mouse Sec23a (UniProt Q01405)
Sequence (Q01405 whole entry): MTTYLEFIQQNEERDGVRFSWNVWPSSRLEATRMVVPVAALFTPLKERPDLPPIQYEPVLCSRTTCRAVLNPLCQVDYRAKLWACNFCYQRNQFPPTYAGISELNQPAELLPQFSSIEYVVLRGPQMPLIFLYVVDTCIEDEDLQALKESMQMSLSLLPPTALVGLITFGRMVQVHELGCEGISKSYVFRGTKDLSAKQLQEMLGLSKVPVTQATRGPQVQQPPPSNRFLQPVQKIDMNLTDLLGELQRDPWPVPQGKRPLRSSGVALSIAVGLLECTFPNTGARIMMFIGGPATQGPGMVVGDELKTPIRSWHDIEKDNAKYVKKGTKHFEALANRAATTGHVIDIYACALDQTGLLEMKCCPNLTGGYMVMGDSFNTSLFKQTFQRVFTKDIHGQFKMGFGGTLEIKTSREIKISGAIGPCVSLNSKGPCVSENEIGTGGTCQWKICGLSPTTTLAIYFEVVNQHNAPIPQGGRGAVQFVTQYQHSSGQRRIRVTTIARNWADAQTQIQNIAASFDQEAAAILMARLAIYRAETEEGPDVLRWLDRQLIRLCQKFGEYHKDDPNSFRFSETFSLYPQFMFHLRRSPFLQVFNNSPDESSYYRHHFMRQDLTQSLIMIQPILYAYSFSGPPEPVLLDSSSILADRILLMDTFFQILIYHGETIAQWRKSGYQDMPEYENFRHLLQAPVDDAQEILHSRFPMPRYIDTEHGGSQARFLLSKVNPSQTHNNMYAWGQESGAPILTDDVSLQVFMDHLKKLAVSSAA

Small COPII coat GTPase SAR1A (Homo sapiens), Q9NR31 T39N
effect of a mutation on the interaction: disrupting interaction
